Results reported in paper PMC4101993 (Nature structural & molecular biology, 2014).

Target: the molecule itself
Assay: SEC-MALS

B1: Purified EttA (gel filtration with static light scattering) (natural protein, E. coli)
chain: MAQFVYTMHRVGKVVPPKRHILKNISLSFFPGAKIGVLGLNGAGKSTLLRIMAGIDKDIEGEARPQPDIKIGYLPQEPQLNPEHTVRESIEEAVSEVVNALKRLDEVYALYADPDADFDKLAAEQGRLEEIIQAHDGHNLNVQLERAADALRLPDWDAKIANLSGGERRRVALCRLLLEKPDMLLLDEPTNHLDAESVAWLERFLHDFEGTVVAITHDRYFLDNVAGWILELDRGEGIPWEGNYSSWLEQKDQRLAQEASQEAARRKSIEKELEWVRQGTKGRQSKGKARLARFEELNSTEYQKRNETNELFIPPGPRLGDKVLEVSNLRKSYGDRLLIDDLSFSIPKGAIVGIIGPNGAGKSTLFRMISGQEQPDSGTITLGETVKLASVDQFRDSMDNSKTVWEEVSGGLDIMKIGNTEMPSRAYVGRFNFKGVDQGKRVGELSGGERGRLHLAKLLQVGGNMLLLDEPTNDLDIETLRALENALLEFPGCAMVISHDRWFLDRIATHILDYQDEGKVEFFEGNFTEYEEYKKRTLGADALEPKRIKYKRIAK
  stoichiometry N: 2
